In patent US8409836B2, “Treatment of cellulosic material and enzymes useful therein” (Roal Oy, priority 2005, dated 2013):
Values joined by “and” are separate entries in the source; they are usually repeats but may differ in a detail not shown here. Equal values may be shown once.

Columns and labels:
[1] = Isoelectric focusing (PhastSystem), pI of purified protein; assay type: physicochemical; details: IEF gel
Protocol: The sample was dissolved in water and applied to a Superdex 75 HR 10/30 gel filtration column equilibrated with 20 mM sodium phosphate pH 6.0, containing 0.15 M NaCl. Fractions were collected and those containing endoglucanase activity were combined. The protein eluate was judged to be pure by SDS-polyacrylamide gel electrophoresis and the molecular mass was evaluated on the basis of molecular mass standards (prestained SDS-PAGE standards, Broad Range, Bio-Rad) to be 54 kDa. The pI of the purified protein, designated as Ct EG—54 was determined with PhastSystem (Pharmacia) to be ca 5.5.
The sample was applied to a Sephacryl S-100 HR 26/60 gel filtration column equilibrated with 50 mM sodium acetate buffer pH 5.0, containing 0.05 M NaCl. The protein fraction containing endoglucanase activity was eluted from the column with a retention volume corresponding to a molecular weight of 16 kDa. Collected fractions were combined, concentrated and gel filtration was repeated. The protein eluate was judged to be pure by SDS-polyacryl amide gel electrophoresis and the molecular weight was evaluated to be 28 kDa. The pI of the purified protein, designated as Ta EG—28, was determined in an IEF gel (PhastSystem, Pharmacia) to be about 3.5. The specific activity of Ta EG—28 at 50° C. was determined to be 4290 nkat/mg (procedure of IUPAC 1987, using CMC as substrate).
The active material from the anion exchange chromatography was applied to a Sephacryl S-300 HR 26/60 column equilibrated with 20 mM sodium phosphate pH 6.5, containing 0.15 M NaCl. The protein with β-glucosidase activity was eluted with a retention volume corresponding to a molecular weight of 243 kDa. The protein was judged to be pure by SDS-polyacrylamide gel electrophoresis and the molecular weight was evaluated to be 101 kDa. The pI of the purified protein, designated as At βG—101, was determined in an IEF gel (PhastSystem, Pharmacia) to be in the area of 5.6-4.9. The specific activity of At βG—101 at 50° C. was determined to be 1100 nkat/mg (using 4-nitrophenyl-β-D-glucopyranoside as substrate, Bailey and Linko, 1990).
The active material from the cation exchange chromatography was applied to a Sephacryl S-300 HR 26/60 column equilibrated with 20 mM sodium phosphate pH 7.0, containing 0.15 M NaCl. The protein with β-glucosidase activity was eluted with a retention volume corresponding to a molecular weight of 294 kDa. […] The protein was judged to be pure by SDS-polyacrylamide gel electrophoresis and the molecular weight was evaluated to be 81 kDa, representing most likely the monomeric form of the protein. […] The specific activity of the purified protein, designated as Ta βG—81, at 50° C. was determined to be 600 nkat/mg using 4-nitrophenyl-β-D-glucopyranoside as substrate (Bailey and Linko, 1990). […]

[2] = pH optimum of heterologously produced xylanase; assay type: biochemical; details: McIlvaine's buffer, pH range 3.0-8.0, birch xylan
Protocol: (§1) Thermoascus XYN—30/Xyn10A was produced in T. reesei and the pH optimum of the heterologously produced protein was determined in the universal McIlvaine's buffer within a pH range of 3.0-8.0 using birch xylan as substrate (FIG. 8A). The optimal pH was determined to be 4.5. The temperature optimum for the enzymatic activity of XYN—30 was determined to be 75° C. (FIG. 8B).

[3] = Xylanase activity on birch xylan; assay type: biochemical
Outline: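 Xylanase activity measured on birch glucuronoxylan by the IUPAC 1987 standard procedure, using enzyme purified from Acremonium thermophilum ALKO4245 or Thermoascus aurantiacus ALKO4242 culture supernatant. Protein determined by dye-binding assay against a bovine serum albumin standard.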

[4] = Temperature optimum of heterologously produced xylanase; assay type: biochemical; details: pH 5.3, 60 min reaction
Protocol: as §1

[5] = Temperature optimum of heterologously produced β-glucosidases; assay type: biochemical; details: temperature range 50-85° C., 60 min
Protocol: (§2) The pH optimum of the heterologously produced β-glucosidases was determined in the universal McIlvaine's buffer within a pH range of 3.0-8.0 using 4-nitrophenyl-β-D-glucopyranoside as substrate. The pH optima for the Acremonium βG—101, Chaetomium βG—76, and Thermoascus βG—81 are pH 4.5, 5.5, and 4.5, respectively (FIG. 7 A). The optimal temperature for enzymatic activity of these β-glucosidases was determined at the temperature range of 50-85° C. as described above. The highest activity of the enzymes was determined to be at 70° C., 65° C., and 75° C. for the Acremonium βG—101/Cel3A, Chaetomium βG—76/Cel3A, and Thermoascus βG—81/Cel3A, respectively (FIG. 7 B).

[6] = pH optimum of heterologously produced β-glucosidases; assay type: biochemical; details: McIlvaine's buffer, pH range 3.0-8.0, 4-nitrophenyl-β-D-glucopyranoside
Protocol: as §2

[7] = β-glucosidase activity on 4-nitrophenyl-β-D-glucopyranoside; assay type: biochemical
Protocol: (§3) Acremonium Thermophilum ALKO4245 was grown as described in Example 1. The pure β-glucosidase was obtained by sequential purification with hydrophobic interaction and anion exchange chromatography followed by gel filtration. The β-glucosidase activity of the fractions collected during purification was determined using 4-nitrophenyl-β-D-glucopyranoside as substrate (Bailey and Linko, 1990). Protein content was measured by BioRad Assay Kit (Bio-Rad Laboratories) using bovine serum albumine as standard.
as §3, with “Thermoascus aurantiacus ALKO4242” for “Acremonium Thermophilum ALKO4245”, “interaction, anion” for “interaction”, “cation” for “anion”

[8] = system: Trichoderma-strains (A47 and Rut-C30); assay: Cellulase induction on βG_81 pretreated Nutriose in shake flask cultivation; assay type: cell-based; details: 7 days shake flask cultivation
Protocol: A high concentration starch hydrolysate mixture (Nutriose 74/968, Roquette) was treated with Thermoascus aurantiacus βG—81/Cel3A enriched enzyme preparation produced as described in Example 21 to produce a sugar mixture containing appreciable amounts of cellulase inducer (sophorose) to overcome the glucose repression.
The Ta βG—81/Cel3A enriched enzyme preparation was added to a 70% (w/w) Nutriose solution to a final concentration of 1 g total protein/liter. The container of the mixture was incubated in a water bath at 65° C. for 3 days with constant stirring and used as a carbon source in a shake flask medium for two different Trichoderma-strains (A47 and Rut-C30). The effect of the enzyme treatment was measured as an endoglucanase activity formed during a 7 days shake flask cultivation. As a reference cultivations were performed under the same conditions with untreated Nutriose as a carbon source.

[9] = Thermal stability of purified β-glucosidase; assay type: biochemical; details: 0.1 mg/ml BSA, pH 5.0, 60 min, 4-nitrophenyl-β-D-glucopyranoside
Protocol: (§4) Thermal stability of the purified β-glucosidase was determined at different temperatures. The reaction was performed in the presence of 0.1 mg/ml BSA at pH 5.0 for 60 min using 4-nitrophenyl-β-D-glucopyranoside as substrate. A. thermophilum βG—101 was stable up to 70° C. The Aspergillus reference enzyme (Novozym 188) retained 100% of activity up to 60°.
as §4, with “T. aurantiacus βG—81” for “A. thermophilum βG—101”, “75°” for “70°”, “60° C.” for “60°.”

Ta XYN_30: xylanase of Thermoascus aurantiacus ALKO4242, gene Ta xyn10A, amino acid SEQ ID NO: 18
pI of the purified protein [1]: ca. 6.8
pH optimum [2]: 4.5
Xylanase activity of the preparation ([3]; assayed according to Bailey et al., 1992): 132 000 nkat/ml
Specific activity on birch xylan ([3]; purified xylanase, 50° C., procedure of IUPAC 1987): 4800 nkat/mg
Temperature optimum [4]: 75 °C

B1: Ta βG_81: beta-glucosidase of Thermoascus aurantiacus ALKO4242, gene Ta cel3A, amino acid SEQ ID NO: 22 (protein)
chain: MRLGWLELAVAAAATVASAKDDLAYSPPFYPSPWMNGNGEWAEAYRRAVDFVSQLTLAEKVNLTTGVGWMQEKCVGETGSIPRLGFRGLCLQDSPLGVRFADYVSAFPAGVNVAATWDKNLAYLRGKAMGEEHRGKGVDVQLGPVAGPLGRHPDGGRNWEGFSPDPVLTGVLMAETIKGIQDAGVIACAKHFIGNEMEHFRQAGEAVGYGFDITESVSSNIDDKTLHELYLWPFADAVRAGVGSFMCSYNQVNNSYSCSNSYLLNKLLKSELDFQGFVMSDWGAHHSGVGAALAGLDMSMPGDTAFGTGKSFWGTNLTIAVLNGTVPEWRVDDMAVRIMAAFYKVGRDRYQVPVNFDSWTKDEYGYEHALVGQNYVKVNDKVDVRADHADIIRQIGSASVVLLKNDGGLPLTGYEKFTGVFGEDAGSNRWGADGCSDRGCDNGTLAMGWGSGTADFPYLVTPEQAIQNEILSKGKGLDSVSIVFVNADSGEGYINVDGNEGDRKNLTLWKGGEEVIKTVAANCNNTIVVMHTVGPVLIDEWYDNPNVTAIVWAGLPGQESGNSLVDVLYGRVSPGGKTPFTWGKTRESYGAPLLTKPNNGKGAPQDDFTEGVFIDYRRFDKYNETPIYEFGFGLSYTTFEYSNIYVQPLNARPYTPASGSTKAAPTFGNISTDYADYLYPEDIHKVPLYIYPWLNTTDPEEVLRRSRLTEMKAEDYIPSGATDGSPQPILPAGGAPGGNPGLYDEMYRVSAIITNTGNVVGDEVPQLYVSLGGPDDPKVVLRNFDRITLHPGQQTMWTTTLTRRDISNWDPASQNWVVTKYPKTVYIGSSSRKLHLQAPLPPY
Temperature of highest activity [5]: 75 °C
pI of the purified protein [1]: > 5.85 and 4.55
pH optimum [6]: 4.5
β-glucosidase activity of the preparation ([7]; according to Bailey and Linko, 1990, listed as Ta βG—81/Cel3A): 6270 nkat/ml and 11500 nkat/ml
Specific activity on 4-nitrophenyl-β-D-glucopyranoside ([7]; purified β-glucosidase, 50° C.): 600 nkat/mg
Endoglucanase activity formed on pretreated Nutriose versus untreated Nutriose [8]: More than two-fold increase
Thermal stability: temperature up to which stable / 100% of activity retained [9]: up to 75 °C
